US20180037892, “EPCAM APTAMERS AND CONJUGATES THEREOF” (Deakin University, published 2018)
Where a chain is given by its changes, count along the chain named.

Key:
[1] = target: T1, Transferrin receptor (TfR) (Mus musculus, UniProt Q62351 Q62351:1-763); assay: flow; bEnd.3 cells, 1 mM MgCl2 folding, 37 C; text gives 365.6; settings: tags: native TfR on bEnd.3 mouse cerebral endothelial cells; chain copies: 2; label: 5' TYE665; hairpin
EpCAM [2] = target: T2, EpCAM (UniProt P16422 P16422:24-314); assay: flow; HEY cells, 37 C; not internalised; settings: tags: native EpCAM on HT29 or HEY cells; label: 5' TYE665; hairpin
T2 sequence: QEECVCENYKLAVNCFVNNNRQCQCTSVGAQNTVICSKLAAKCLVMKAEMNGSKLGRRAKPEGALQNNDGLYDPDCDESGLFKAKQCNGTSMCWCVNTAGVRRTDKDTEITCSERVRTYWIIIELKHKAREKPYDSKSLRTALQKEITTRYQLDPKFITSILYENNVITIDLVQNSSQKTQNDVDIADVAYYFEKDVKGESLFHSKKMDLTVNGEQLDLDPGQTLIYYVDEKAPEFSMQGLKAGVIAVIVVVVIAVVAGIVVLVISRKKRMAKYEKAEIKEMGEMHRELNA

[3] = target: T1, Transferrin receptor (TfR); assay: flow; bEnd.3 cells, 1 mM MgCl2 folding, 37 C; settings: tags: native TfR on bEnd.3 mouse cerebral endothelial cells; chain copies: 2; label: 5' TYE665; hairpin
[4] = target: T1, Transferrin receptor (TfR); assay: flow; bEnd.3 cells, 5 mM MgCl2 folding, 37 C; not internalised; settings: tags: native TfR on bEnd.3 mouse cerebral endothelial cells; chain copies: 2; label: 5' TYE665; two hairpins
Protocol: (§1) In order to determine the binding affinity (equilibrium dissociation constant KD) of the aptamers. Binding assays were conducted to measure the binding to native EpCAM protein expressed on the cell surface. The aptamers were incubated with the cells at concentrations ranging from 0 nM to 400 nM. These were subsequently analysed by flow cytometry. Aptamers were thawed from storage (−20° C.) prior to use. These were then diluted via serial dilutions with phosphate buffered saline (PBS) in order to achieve the desired concentrations. PBS was supplemented with a MgCl₂ concentration appropriate for the aptamer (1 mM for anti-TfR aptamers; 5 mM for conjugate aptamers). Aptamers were then folded into their 3D structures using a thermocycler (85° C. for 5 minutes, slow cooling to 22° C. over 10 minutes and 37° C. for 15 minutes).
(§2) The binding affinities of aptamers Bi1, Bi2 and Bi3 were determined semi-quantitatively via flow cytometry, using bEnd.3 cells to assess reactivity with TfR, HEY cells to determine EpCAM specificity and the MOLT4 cell line as a negative control. Three independent binding assays were performed for these aptamer against all three cell lines (bEnd.3, HEY and MOLT4).

EpCAM [5] = target: T2, EpCAM; assay: flow; HEY cells, scrambled EpCAM loop, 5 mM MgCl2 folding, 37 C; settings: tags: native EpCAM on HT29 or HEY cells; label: 5' TYE665; two hairpins
Protocol: as §1, §2

EpCAM [6] = target: T2, EpCAM; assay: flow; HEY cells, 37 C; settings: tags: native EpCAM on HT29 or HEY cells, label: 5' TYE665, hairpin
Protocol: (§3) The equilibrium dissociation constant (KD) of each DNA EpCAM aptamer (Ep7, Ep8 and Ep9) was determined by measuring its binding to native EpCAM protein expressed on the cell surface using flow cytometry. HT29, HEY and HEK293T (5×10⁵) cells were first incubated with blocking buffer (PBS containing 10% FCS, 1 mg/mL tRNA, 1 mg/mL BSA) for 30 minutes followed by a single wash with binding buffer (PBS containing 10% FCS, 1 mg/mL tRNA, 1 mg/mL BSA) prior to incubation with serial dilutions of concentrations of the respective TYE665-labelled aptamers (0 to 200 nM) in binding buffer for 30 min at 37° C. The cells were washed three times with PBS and resuspended in PBS prior to flow cytometric analysis. The fluorescent intensity was determined using a FACS Canto II flow cytometer (Becton Dickinson), counting 10,000 events for each sample. The mean fluorescent intensity of each concentration was subtracted from that of the auto fluorescent control and the KD for each aptamer was calculated from the normalised values for fluorescent intensity.

EpCAM [7] = target: T2, EpCAM; assay: flow; HEY cells, 5 mM MgCl2 folding, 37 C; settings: tags: native EpCAM on HT29 or HEY cells; label: 5' TYE665; two hairpins
Protocol: as §1, §2

[8] = target: T1, Transferrin receptor (TfR); assay: flow; bEnd.3 cells, 5 mM MgCl2 folding, 37 C; settings: tags: native TfR on bEnd.3 mouse cerebral endothelial cells; chain copies: 2; label: 5' TYE665; two hairpins
Protocol: as §1, §2

[9] = target: T1, Transferrin receptor (TfR); assay: flow; bEnd.3 cells, 5 mM MgCl2 folding, 37 C; text gives 305.5; settings: tags: native TfR on bEnd.3 mouse cerebral endothelial cells; chain copies: 2; label: 5' TYE665; two hairpins
Protocol: as §1, §2

EpCAM [10] = target: T2, EpCAM; assay: flow; HT29 cells, 37 C; no binding to EpCAM-negative HEK293T and K562; settings: tags: native EpCAM on HT29 or HEY cells; label: 5' TYE665; hairpin
Protocol: as §3

T1 sequence (Q62351 whole entry, one chain of several): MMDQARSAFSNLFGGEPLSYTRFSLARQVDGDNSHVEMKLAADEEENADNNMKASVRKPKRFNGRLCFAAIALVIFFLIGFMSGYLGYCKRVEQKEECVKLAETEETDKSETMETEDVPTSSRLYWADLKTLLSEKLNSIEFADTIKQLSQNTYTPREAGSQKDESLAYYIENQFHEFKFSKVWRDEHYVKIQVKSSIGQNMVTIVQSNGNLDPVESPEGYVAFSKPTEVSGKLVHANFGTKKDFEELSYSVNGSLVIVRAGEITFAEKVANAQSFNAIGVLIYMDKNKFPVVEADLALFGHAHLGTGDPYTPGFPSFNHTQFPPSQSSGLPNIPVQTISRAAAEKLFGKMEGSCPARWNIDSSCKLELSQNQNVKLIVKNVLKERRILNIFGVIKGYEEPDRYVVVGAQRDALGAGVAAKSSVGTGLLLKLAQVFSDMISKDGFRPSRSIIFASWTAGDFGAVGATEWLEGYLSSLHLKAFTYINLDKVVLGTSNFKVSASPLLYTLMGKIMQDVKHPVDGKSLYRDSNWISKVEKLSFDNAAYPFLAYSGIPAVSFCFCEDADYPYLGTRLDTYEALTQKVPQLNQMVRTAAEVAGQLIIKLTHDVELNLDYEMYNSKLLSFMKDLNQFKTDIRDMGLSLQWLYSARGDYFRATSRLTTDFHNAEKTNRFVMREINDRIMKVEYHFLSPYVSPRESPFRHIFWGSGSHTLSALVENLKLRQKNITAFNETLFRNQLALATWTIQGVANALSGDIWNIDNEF

B1: TfR3 (ssDNA)
DNA: GCGTGGTACCACGC
modifications: 3' inverted dT
[1]
  Kd: 366 nM

B2: Scr Ex Ep7 (scrambled extended Ep7) (ssDNA)
DNA: CGCGCGCCGCATTCCTTTTGCGGCGCGCGT
modifications: 3' inverted dT [30 (3' inverted dT)]
EpCAM [2]
  Kd: 521 nM

B3: TfR1 (ssDNA)
DNA: GCGTGTGCACACGC
modifications: 3' inverted dT
[3]
  Kd: 5.76 µM

B4: Bi1 (TENN conjugate, TfR1 loop + scrambled Ep7 loop) (ssDNA)
DNA: GCGCGTGCACGCGCTAACGGATTCCTTTTCCGT
modifications: 3' inverted dT
[4]
  Kd: 1690 nM
EpCAM [5]
  Kd: 921 nM

B5: Ex Ep7 (extended Ep7) (ssDNA)
DNA: CGCGCGCCGCAGGTTGCGTGCGGCGCGCGT
modifications: 3' inverted dT [30 (3' inverted dT)]
EpCAM [6]; 10 bp stem
  Kd: 63.7 nM

B6: Bi3 (TEPP, TfR3 loop + Ep7 loop conjugate) (ssDNA)
DNA: GCGCGGTACCGCGCTAACGGAGGTTGCGTCCGT
modifications: 3' inverted dT
EpCAM [7]
  Kd: 219 nM
[8]
  Kd: 342 nM

B7: Bi2 (TfR2 loop + Ep7 loop conjugate) (ssDNA)
DNA: B6 DNA with T7G, A8C
modifications: 3' inverted dT
EpCAM [7]
  Kd: 205 nM
[9]
  Kd: 305 nM

B8: TfR2 (ssDNA)
DNA: GCGTGGGCCCACGC
modifications: 3' inverted dT
[3]
  Kd: 0.525 µM

B9: Ep9 (ssDNA)
DNA: GGGGTTGGCCCCT
modifications: 3' inverted dT [13 (3' inverted dT)]
EpCAM [10]
  Kd: 31.8 nM
EpCAM [6]
  Kd: 266 nM
